{"source": "patent US20170281764A1", "about": "(JN BIOSCIENCES, published 2017)", "binders": {"B1": {"name": "HuTIG1-IgG1.AA (humanized IgG1/kappa form of TIG1, L234A/L235A) (antibody)", "heavy": "not shown", "light": "DIQMTQSPSSLSASVGDRVTITCRASKSISKYLAWYQQKPGKAPKLLIYSGSTLQSGVPSRFSGSGSGTDFTLTISSLQPEDFATYYCQQHNEYPWTFGGGTKVEIKRTVAAPSVFIFPPSDEQLKSGTASVVCLLNNFYPREAKVQWKVDNALQSGNSQESVTEQDSKDSTYSLSSTLTLSKADYEKHKVYACEVTHQGLSSPVTKSFNRGEC", "notes": "Mature full chains; also called humanized TIG1"}}, "key": {"[1]": {"biological_target": "T1, human TIGIT on cells (Jurkat-TIGIT cells; human T cells, NK cells and other blood cells) (human, UniProt Q495A1 22-244)", "T1 sequence": "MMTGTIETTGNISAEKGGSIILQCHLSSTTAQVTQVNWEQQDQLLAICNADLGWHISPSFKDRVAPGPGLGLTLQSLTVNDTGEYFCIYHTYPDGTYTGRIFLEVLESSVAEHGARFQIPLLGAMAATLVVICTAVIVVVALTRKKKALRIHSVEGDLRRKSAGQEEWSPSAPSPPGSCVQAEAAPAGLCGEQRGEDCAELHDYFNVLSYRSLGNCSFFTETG", "assay": "cell-based or functional assay"}, "[2]": {"biological_target": "T2, extracellular region of human TIGIT fused to FLAG and GPI (hTIGIT-GPI), on the surface of NS0 cells (human)", "T2 construct": "The GPI signal is processed when the anchor is attached; also called NS0-hTIGIT cells", "T2 chain": "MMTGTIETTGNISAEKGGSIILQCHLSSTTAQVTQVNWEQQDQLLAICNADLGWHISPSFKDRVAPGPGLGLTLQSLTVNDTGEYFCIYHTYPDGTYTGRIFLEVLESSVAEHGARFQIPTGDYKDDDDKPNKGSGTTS", "assay": "flow cytometry on NS0-hTIGIT cells", "protocol": "Binding of HuTIG1-IgG1.AA to human TIGIT was also examined by flow cytometry. NS0-hTIGIT cells (8×10⁵ cells) were incubated in 160 μl of FACS Buffer (PBS containing 0.5% bovine serum albumin and 0.05% sodium azide) in the presence (or absence) of various concentrations of HuTIG1-IgG1.AA, starting at 10 μg/ml and serial 2-fold dilutions, for 20 min at 4° C. After washing with FACS Buffer, HuTIG1-IgG1.AA binding on NS0-hTIGIT cells were detected with PE-labeled goat anti-human IgG antibody in FACS Buffer. After incubation for 20 min and washing with FACS Buffer, the cells were subjected to flow cytometry using a FACScan flow cytometer (BD Biosciences, San Jose, Calif.) to obtain the mean channel fluorescence (MCF) at each antibody concentration. […] The EC₅₀ value was 60 ng/ml."}, "[3]": {"biological_target": "T3, HA-tagged human TIGIT with mutation N49A, on CHO-K1 cells (human, UniProt Q495A1 22-244)", "T3 sequence": "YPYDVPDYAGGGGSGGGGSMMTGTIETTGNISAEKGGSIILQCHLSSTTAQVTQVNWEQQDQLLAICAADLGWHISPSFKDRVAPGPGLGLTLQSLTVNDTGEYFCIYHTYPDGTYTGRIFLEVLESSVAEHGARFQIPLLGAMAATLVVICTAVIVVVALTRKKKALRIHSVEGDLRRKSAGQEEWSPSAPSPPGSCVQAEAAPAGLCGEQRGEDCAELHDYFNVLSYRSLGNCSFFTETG", "assay": "flow cytometry on CHO-K1 cells transiently expressing HA-tagged TIGIT mutant; N49A mutant", "protocol": "(§1) For flow cytometry analysis of the anti-hTIGIT antibody binding epitope, HA-tagged human TIGIT proteins with or without single amino acid mutation were transiently transfected into CHO-K1 cells. After 24 hr, transfected cells were suspended in HBSS buffer (Thermo Fisher Scientific, Cat#14175095), and incubated with HuTIG1-IgG1.AA antibody at varying concentrations in 50 μL volume. After 1 hr incubation at 4° C., cells were washed and a second incubation with 50 μL Alexa488 conjugated anti-human IgG(H+L) secondary antibody (Thermo Fisher Scientific, Cat#A-11013) was performed to detect cells bound by antibody. Cells were incubated with an anti-HA antibody (Sigma, Cat# H7411) as a positive control, and non-transfected CHO-K1 cells were used as a negative control. The cells were analyzed on an Attune NxT Cytometer (Thermo Fisher Scientific) and the data were processed using FlowJo software. For each mutant, the saturating antibody binding MFI (mean fluorescence intensity) were normalized to 100% POC (percent of control), and no primary antibody binding control MFI were normalized to 0% POC. Data were then fit to a four parameter non-linear sigmoidal curve using GraphPad Prism 7 curve fitting using following formula: Y=Bottom+(Top−Bottom)/(1+10^{((Log EC}^₅₀^{-X)*HillSlope)}). […]"}, "[4]": {"biological_target": "T4, HA-tagged human TIGIT, wild type, transiently expressed on CHO-K1 cells (human, UniProt Q495A1 22-244)", "T4 sequence": "T3 sequence with A68N", "assay": "flow cytometry on CHO-K1 cells transiently expressing HA-tagged human TIGIT; wild type TIGIT", "protocol": "as §1"}, "[5]": {"biological_target": "T5, His-tagged soluble recombinant human TIGIT (Cat # TIT-H52H3; Acro Biosystems) (human, UniProt Q495A1 22-141)", "T5 construct": "Bought reagent; not shown: His tag", "T5 sequence (looked up)": "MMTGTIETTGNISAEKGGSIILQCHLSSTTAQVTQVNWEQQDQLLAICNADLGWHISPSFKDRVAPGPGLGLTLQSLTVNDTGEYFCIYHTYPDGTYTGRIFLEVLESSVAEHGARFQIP", "assay": "SPR (BioRad ProteOn XPR36), antibody captured by anti-human IgG, soluble TIGIT as analyte, 25 °C, 1:1 model", "protocol": "Biosensor studies for HuTIG1-IgG1.AA were run on a BioRad ProteOn XPR36 system in 10 mM HEPES, 150 mM NaCl, pH 7.4, 0.005% Tween-20 and 0.2 mg/ml BSA at 25° C. HuTIG1-IgG1.AA was diluted to 3.7, 1.2 and 0.4 nM and captured for 5 minutes onto a GLM sensor chip coated with ˜10,000 RU of GE's anti-human IgG antibody. His-tagged soluble recombinant human TIGIT (Cat # TIT-H52H3; Acro Biosystems, Newark, Del.) was tested at 100 nM as the highest concentration in a 3-fold dilution series down to 1.2 nM. The data from the three different density antibody surfaces were globally fit to a 1:1 interaction model using a local Rmax."}}, "note": "Where a chain is given by its changes, count along the chain named. In names and notes the source's numbering stands."}
{"binder": "B1", "values": [{"measurement": "increase of K562 target cell killing by purified NK cells, 10 µg/ml antibody, relative to 'No Antibody' or Rituxan", "setting": "[1]", "result": 28, "unit": "%"}, {"measurement": "EC50", "setting": "[2]", "result": 0.06, "unit": "µg/mL"}, {"measurement": "EC50", "setting": "[3]", "result": 17.7, "unit": "nM"}, {"measurement": "EC50", "setting": "[4]", "result": 1.28, "unit": "nM"}, {"measurement": "Kd", "setting": "[5]", "result": 0.925, "unit": "nM"}, {"measurement": "koff", "setting": "[5]", "result": 0.000409, "unit": "s⁻¹"}, {"measurement": "kon", "setting": "[5]", "result": 442000, "unit": "M⁻¹ s⁻¹"}]}
